Data on one molecule can be found in patent publication US20230220008A1 (Bicycle, published 2023).

Starred links: 1 amine or outer side, 2 acyl side, 3 side chain; linkers in the order of their positions; H or OH if unused. Positions of bridges follow the written chain, without caps; N, C: chain ends. Non-standard residues stand in square brackets, D forms with d. No end group written: not given here. TATA = O=C(CC[*:1])N1CN(C(=O)CC[*:2])CN(C(=O)CC[*:3])C1; Nle = CCCC[C@H](N)C(=O)O; PYA = propargyl-acid

In the test the target is T1, Recombinant human CD137 (R&D systems), biotinylated (human, UniProt Q07011 24-186, biotinylated with EZ-Link Sulfo-NHS-LC-LC-Biotin).
T1 construct: Bought protein; Captured on a streptavidin chip; also called human CD137 protein; 4-1BB
Description: SPR (Biacore), biotinylated human CD137 captured on streptavidin chip, peptide as analyte, 25°C; BCY7742 (Monomer 3A), a separate monomer number from BCY8095. The protocol: Biacore experiments were performed to determine kₐ (M⁻¹s⁻¹), kd (s⁻¹), KD (nM) values of monomeric peptides binding to human CD137 protein. […] The protein was desalted to remove uncoupled biotin using spin columns into PBS.
For analysis of peptide binding, a Biacore T200 or a Biacore 3000 instrument was used with a XanTec CMD500D chip. Streptavidin was immobilized on the chip using standard amine-coupling chemistry at 25° C. with HBS-N(10 mM HEPES, 0.15 M NaCl, pH 7.4) as the running buffer. Briefly, the carboxymethyl dextran surface was activated with a 7 min injection of a 1:1 ratio of 0.4 M 1-ethyl-3-(3-dimethylaminopropyl) carbodiimide hydrochloride (EDC)/0.1 M N-hydroxy succinimide (NHS) at a flow rate of 10 μl/min. For capture of streptavidin, the protein was diluted to 0.2 mg/ml in 10 mM sodium acetate (pH 4.5) and captured by injecting 120 μl of onto the activated chip surface. Residual activated groups were blocked with a 7 min injection of 1 M ethanolamine (pH 8.5) and biotinylated CD137 captured to a level of 270-1500 RU. Buffer was changed to PBS/0.05% Tween 20 and a dilution series of the peptides was prepared in this buffer with a final DMSO concentration of 0.5%. The top peptide concentration was 500 nM with 6 further 2-fold or 3-fold dilutions. The SPR analysis was run at 25° C. at a flow rate of 90 μl/min with 60 seconds association and 900 seconds dissociation. […]

T1 sequence (Q07011 24-186 limits assumed): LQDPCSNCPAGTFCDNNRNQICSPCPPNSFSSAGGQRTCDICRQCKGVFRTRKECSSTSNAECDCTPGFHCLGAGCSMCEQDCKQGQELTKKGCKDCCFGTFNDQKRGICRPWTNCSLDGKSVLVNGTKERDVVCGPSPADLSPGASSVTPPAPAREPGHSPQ

B1: BCY7742 (peptide)
peptide: Ac-ACIK(PYA)EGQYCFADPY[Nle]CA
modifications: linker 2-9-16 via TATA
notes: Bicyclic peptide monomer; also called Monomer 3A
Regarding B1, the Kd (commonly the free concentration of one partner at which half of the binding sites on the other are occupied at equilibrium, for simple one-to-one binding) is 0.855 µM.
